What all share (experiment): SPR
Background: Surface plasmon resonance follows binding to a sensor surface in real time, without labels.

One assay addresses Ab62-D100dG (human).
For another assay, the target named is Ab62-S74P (human).
Assay [1] deals with Ab77 with a T28I mutation (human).
Assay [2] has as its target Other beneficial substitutions in Ab77 and Ab31.

B1: Recombinant dimeric HARS (aa1-506) (enzyme)
chain: MAERAALEELVKLQGERVRGLKQQKASAELIEEEVAKLLKLKAQLGPDESKQKFVLKTPKGTRDYSPRQMAVREKVFDVIIRCFKRHGAEVIDTPVFELKETLMGKYGEDSKLIYDLKDQGGELLSLRYDLTVPFARYLAMNKLTNIKRYHIAKVYRRDNPAMTRGRYREFYQCDFDIAGNFDPMIPDAECLKIMCEILSSLQIGDFLVKVNDRRILDGMFAICGVSDSKFRTICSSVDKLDKVSWEEVKNEMVGEKGLAPEVADRIGDYVQQHGGVSLVEQLLQDPKLSQNKQALEGLGDLKLLFEYLTLFGIDDKISFDLSLARGLDYYTGVIYEAVLLQTPAQAGEEPLGVGSVAAGGRYDGLVGMFDPKGRKVPCVGLSIGVERIFSIVEQRLEALEEKIRTTETQVLVASAQKKLLEERLKLVSELWDAGIKAELLYKKNPKLLNQLQYCEEAGIPLVAIIGEQELKDGVIKLRSVTSREEVDVRREDLVEEIKRRTGQPL
On to B1, for which the fold improvement of affinity over the parent Ab62 with Ab62-D100dG (human) and with Ab62-S74P (human) was 3 fold throughout. Moreover, in assay [1], the fold improvement of affinity over the parent Ab77 came out at 3 fold. The fold improvement of affinity over the parent antibody in assay [2] is less than 2 fold.

For the origin of these results see article PMC7646482.
